Results on 3 molecules are retold here after PMC10624902, “Structure of a membrane-bound menaquinol:organohalide oxidoreductase” (Nature Communications, 2023).

Data set [1] addresses T1, PceA2B2 complex (menaquinol:organohalide oxidoreductase, MOOR; DhPceA / DhPceB) (Desulfitobacterium hafniense, UniProt Q8GJ30+Q8GJ31).
T1 construct: gene pceA; native complex from D. hafniense membranes, DDM-solubilised, SEC into LMNG; no tag; PceA C-terminal domain S486-Q551 present; PceA exported via Tat
T1 sequence (Q8GJ31 40-551): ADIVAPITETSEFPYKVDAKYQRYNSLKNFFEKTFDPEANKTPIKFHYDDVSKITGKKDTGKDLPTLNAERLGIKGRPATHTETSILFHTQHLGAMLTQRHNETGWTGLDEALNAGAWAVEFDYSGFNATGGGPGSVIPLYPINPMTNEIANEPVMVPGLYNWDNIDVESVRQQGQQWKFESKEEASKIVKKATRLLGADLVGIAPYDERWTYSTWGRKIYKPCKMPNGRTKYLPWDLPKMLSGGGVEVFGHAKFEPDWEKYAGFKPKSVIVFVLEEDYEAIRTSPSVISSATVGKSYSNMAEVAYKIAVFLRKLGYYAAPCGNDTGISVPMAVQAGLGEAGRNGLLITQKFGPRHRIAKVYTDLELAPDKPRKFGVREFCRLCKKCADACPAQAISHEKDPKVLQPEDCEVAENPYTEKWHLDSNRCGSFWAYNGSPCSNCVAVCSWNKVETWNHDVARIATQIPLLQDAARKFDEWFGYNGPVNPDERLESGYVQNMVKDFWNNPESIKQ
T1 sequence (Q8GJ30 1-105): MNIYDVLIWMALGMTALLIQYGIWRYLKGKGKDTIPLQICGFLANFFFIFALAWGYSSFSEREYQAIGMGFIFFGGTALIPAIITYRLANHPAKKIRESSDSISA
The data set can be described thus: cryo-EM structure, […] A. Type of data set: binding. Particulars: PceA active site / channel, 5.3 A from cobalt; cells grown with PCE.

Data set [2] concerns the molecule itself. As to the kind of experiment: cryo-EM structure; native PceA2B2 complex purified from the membrane extract by SEC in 25 mM HEPES-NaOH pH 7.5, 150 mM NaCl, 0.005% LMNG; single-particle analysis, C2 symmetry, 2.83 Å. On the technique in general: In gel filtration, larger molecules generally elute earlier.
Data set [3] concerns the molecule itself. The data set can be described thus: native gel or EMSA; Clear-Native PAGE (5-15% gradient, Bis-Tris) of DDM-solubilised membrane extract and soluble fraction, anaerobic; Coomassie and in-gel PCE dehalogenase activity staining; the ~180 kDa band cut out, run on SDS-PAGE as second dimension and analysed by LC-MS/MS. On the technique in general: Mobility shift assays separate free from complexed probe on a gel.

On to `Cl/C=C\Cl` [cis-1,2-dichloroethene], for which the “cryo-EM structure, 2.83 A” value in data set [1] was “density for a dichloroethene (DCE) molecule, the final product of PCE dechlorination”.

B1: PceB, integral membrane anchor subunit of the PCE reductive dehalogenase from Desulfitobacterium hafniense strain TCE1 (natural protein, UniProt Q8GJ30 1-105, looked up)
chain: MNIYDVLIWMALGMTALLIQYGIWRYLKGKGKDTIPLQICGFLANFFFIFALAWGYSSFSEREYQAIGMGFIFFGGTALIPAIITYRLANHPAKKIRESSDSISA
notes: PceB, small integral membrane subunit with three transmembrane helices, encoded in the pceABCT operon of Desulfitobacterium hafniense strain TCE1; also called DhPceB; RdhB; source: endogenous, D. hafniense strain TCE1: DDM-solubilised membrane extract; purified as PceA2B2 complex by size-exclusion chromatography (Superose 6 Increase) for cryo-EM
As for B1, in data set [2], the binding result is “binds”.

B2: PceA, catalytic subunit of the tetrachloroethene (PCE) reductive dehalogenase from Desulfitobacterium hafniense strain TCE1 (enzyme, UniProt Q8GJ31 40-551, looked up)
chain: ADIVAPITETSEFPYKVDAKYQRYNSLKNFFEKTFDPEANKTPIKFHYDDVSKITGKKDTGKDLPTLNAERLGIKGRPATHTETSILFHTQHLGAMLTQRHNETGWTGLDEALNAGAWAVEFDYSGFNATGGGPGSVIPLYPINPMTNEIANEPVMVPGLYNWDNIDVESVRQQGQQWKFESKEEASKIVKKATRLLGADLVGIAPYDERWTYSTWGRKIYKPCKMPNGRTKYLPWDLPKMLSGGGVEVFGHAKFEPDWEKYAGFKPKSVIVFVLEEDYEAIRTSPSVISSATVGKSYSNMAEVAYKIAVFLRKLGYYAAPCGNDTGISVPMAVQAGLGEAGRNGLLITQKFGPRHRIAKVYTDLELAPDKPRKFGVREFCRLCKKCADACPAQAISHEKDPKVLQPEDCEVAENPYTEKWHLDSNRCGSFWAYNGSPCSNCVAVCSWNKVETWNHDVARIATQIPLLQDAARKFDEWFGYNGPVNPDERLESGYVQNMVKDFWNNPESIKQ
notes: PceA, catalytic subunit of the PCE reductive dehalogenase, Desulfitobacterium hafniense strain TCE1 (DSM 12704), locus tag DeshaDRAFT_2412; C-terminal domain printed as S486-Q551; Native protein with a cobalamin and two [4Fe-4S] clusters; a menaquinone lies at the interface with PceB; the modelled residues are in PDB 8Q4H; also called DhPceA; RdhA; source: endogenous, D. hafniense strain TCE1: …
For orientation: stoichiometry N means a count of units in the complex or per binding partner. Turning to B2, the “stoichiometry N” value in data set [3] is 2.
